In patent US20230399385A1:

Biological target: SARS-CoV-2 spike (S) glycoprotein, wild-type, on pseudotyped virus (SARS-CoV-2) (UniProt P0DTC2)
Test: cell-based or functional assay

Chain of JS016 (antibody) (VH): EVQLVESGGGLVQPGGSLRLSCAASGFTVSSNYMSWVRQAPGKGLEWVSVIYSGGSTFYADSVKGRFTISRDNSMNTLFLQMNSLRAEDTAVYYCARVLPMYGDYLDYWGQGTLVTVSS
Chain of JS016 (antibody) (VL): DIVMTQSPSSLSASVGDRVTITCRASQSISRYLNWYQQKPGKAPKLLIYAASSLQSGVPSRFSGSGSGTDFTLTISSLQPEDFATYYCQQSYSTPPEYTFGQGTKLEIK

JS016 (antibody)
IC50, pseudovirus neutralization study against wild-type SARS-CoV-2: 0.0631 µg/mL
